Test results published in the supplement of paper PMC9112550, “Optimization of the antimicrobial peptide Bac7 by deep mutational scanning” (BMC Biology, 2022).

System: Escherichia coli TOP10
Assay: shrunken log2 fold change of peptide-encoding DNA abundance (4.5 h post-induction vs induction); higher = less antimicrobial activity (less host growth inhibition)
Settings: time post-induction: 4.5 h; library: site-saturation at positions 5, 18, 19, 20
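Note: peptides expressed intracellularly from a pBAD plasmid library in pooled LB shake-flask culture, induced with 0.3% L-arabinose, DNA abundance read by NGS, three biological replicates, DESeq2 with apeglm shrinkage.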

Sequence	shrunken log2 fold change
RRIRIRPPRLPRPRPRPWIAPRP	-0.717
RRIRWRPPRLPRPRPRPGSSPRP	-0.0655
RRIRMRPPRLPRPRPRPQMTPRP	1.2
RRIRNRPPRLPRPRPRPWHPPRP	-0.277
RRIRARPPRLPRPRPRPDADPRP	1.63
RRIRERPPRLPRPRPRPCCLPRP	-0.57
RRIRLRPPRLPRPRPRPMQAPRP	-0.0495
RRIRKRPPRLPRPRPRPTTSPRP	0.321
RRIRNRPPRLPRPRPRPDHKPRP	-0.398
RRIRTRPPRLPRPRPRPQQWPRP	0.46
RRIRCRPPRLPRPRPRPRVCPRP	0.284
RRIRKRPPRLPRPRPRPKIGPRP	0.295
RRIRMRPPRLPRPRPRPDMYPRP	-0.138
RRIRYRPPRLPRPRPRPPNDPRP	-0.151
RRIRQRPPRLPRPRPRPWPIPRP	-0.152
RRIRDRPPRLPRPRPRPFGRPRP	-0.0125
RRIRHRPPRLPRPRPRPDHAPRP	0.0557
RRIRHRPPRLPRPRPRPVPNPRP	-8.36e-05
RRIRVRPPRLPRPRPRPCHCPRP	-0.373
RRIRHRPPRLPRPRPRPSKDPRP	-0.293
RRIRRRPPRLPRPRPRPDDGPRP	-0.147
RRIRFRPPRLPRPRPRPHMKPRP	-0.585
RRIRHRPPRLPRPRPRPKFRPRP	-0.317

Sequence	shrunken log2 fold change
RRIRVRPPRLPRPRPRPRMLPRP	-0.103
RRIRIRPPRLPRPRPRPYTCPRP	-0.0187
RRIRSRPPRLPRPRPRPKCGPRP	0.397
RRIRQRPPRLPRPRPRPIQNPRP	-0.11
RRIRWRPPRLPRPRPRPSLFPRP	0.114
RRIRTRPPRLPRPRPRPAMSPRP	0.00971
RRIRARPPRLPRPRPRPYICPRP	-0.326
RRIRIRPPRLPRPRPRPYGVPRP	-0.266
RRIRPRPPRLPRPRPRPLLGPRP	0.191
RRIRRRPPRLPRPRPRPRTKPRP	0.0753
RRIRQRPPRLPRPRPRPSWTPRP	-0.15
RRIRGRPPRLPRPRPRPTTWPRP	0.521
RRIRARPPRLPRPRPRPRCHPRP	0.308
RRIRRRPPRLPRPRPRPHSEPRP	0.0888
RRIRHRPPRLPRPRPRPFDWPRP	-0.0238
RRIRVRPPRLPRPRPRPVHKPRP	0.129
RRIRTRPPRLPRPRPRPIESPRP	0.0133
RRIRDRPPRLPRPRPRPGVMPRP	0.521
RRIRKRPPRLPRPRPRPNVHPRP	0.273
RRIRSRPPRLPRPRPRPLKGPRP	0.0623
RRIRQRPPRLPRPRPRPRKSPRP	-0.172
RRIRYRPPRLPRPRPRPPGFPRP	0.184
RRIRIRPPRLPRPRPRPPREPRP	0.535

Sequence	shrunken log2 fold change
RRIRGRPPRLPRPRPRPIWWPRP	0.922
RRIRGRPPRLPRPRPRPECMPRP	1.49
RRIRDRPPRLPRPRPRPPGSPRP	0.511
RRIRCRPPRLPRPRPRPRLGPRP	0.485
RRIRWRPPRLPRPRPRPLKMPRP	0.234
RRIRLRPPRLPRPRPRPKWQPRP	-0.0304
RRIRWRPPRLPRPRPRPYTHPRP	-0.536
RRIRERPPRLPRPRPRPAMGPRP	-0.0135
RRIRVRPPRLPRPRPRPMVVPRP	-0.0329
RRIRSRPPRLPRPRPRPDIAPRP	-0.0218
RRIRTRPPRLPRPRPRPMNIPRP	-0.259
RRIRIRPPRLPRPRPRPQDQPRP	-0.242
RRIRTRPPRLPRPRPRPDAPPRP	0.215
RRIRGRPPRLPRPRPRPFVNPRP	-0.0813
RRIRARPPRLPRPRPRPCGPPRP	0.0702
RRIRARPPRLPRPRPRPQDGPRP	0.214
RRIRSRPPRLPRPRPRPNVAPRP	-0.0788
RRIRLRPPRLPRPRPRPTPHPRP	0.322
RRIRIRPPRLPRPRPRPAEIPRP	-0.484
RRIRMRPPRLPRPRPRPDMSPRP	-0.00277
RRIRGRPPRLPRPRPRPCAYPRP	0.0946
RRIRARPPRLPRPRPRPIGRPRP	0.00162
RRIRERPPRLPRPRPRPYDSPRP	-0.0594

Sequence	shrunken log2 fold change
RRIRERPPRLPRPRPRPGILPRP	-0.304
RRIRMRPPRLPRPRPRPRERPRP	0.623
RRIRARPPRLPRPRPRPIMNPRP	-0.151
RRIRDRPPRLPRPRPRPVSHPRP	0.00713
RRIRPRPPRLPRPRPRPIYWPRP	0.00563
RRIRERPPRLPRPRPRPACYPRP	-0.308
RRIRMRPPRLPRPRPRPCAVPRP	0.296
RRIRLRPPRLPRPRPRPWRGPRP	0.277
RRIRLRPPRLPRPRPRPQVEPRP	0.0591
RRIRNRPPRLPRPRPRPVGPPRP	0.448
RRIRKRPPRLPRPRPRPTKVPRP	1.21
RRIRQRPPRLPRPRPRPMAQPRP	0.006
RRIRCRPPRLPRPRPRPQRPPRP	0.166
RRIRSRPPRLPRPRPRPINAPRP	-0.377
RRIRIRPPRLPRPRPRPQKGPRP	-0.33
RRIRRRPPRLPRPRPRPKMYPRP	-0.258
RRIRRRPPRLPRPRPRPMWWPRP	0.291
RRIRQRPPRLPRPRPRPILWPRP	-0.185
RRIRCRPPRLPRPRPRPAFQPRP	0.0486
RRIRIRPPRLPRPRPRPCCSPRP	-1.1
RRIRERPPRLPRPRPRPSPTPRP	0.0865
RRIRSRPPRLPRPRPRPKILPRP	-0.112
